Assay [1] has as its target T1, human MED23 isoform 1, C-terminal 6xHis-tagged (MED23-6His) (human, UniProt Q9ULK4-1).
T1 construct: Mediator subunit MED23, human, isoform 1 (NM_004830.3); A rhinovirus 3C protease site stands between MED23 and the 6xHis tag; no cleavage is described; The DNA encoding isoform 1 was amplified by PCR; the words 'full length' are not used, but the model is called complete except for the last 30 residues; also called recombinant human MED23; source: SF21 cells, baculovirus (Bac-to-Bac), purified …
As to the kind of experiment: crystal structure; purified MED23 mixed with Nb106 in a 1:1.2 ratio, 1 h at 4 °C; hanging drop vapor diffusion at 20 °C, 10% PEG6000, 100 mM HEPES pH 7.0; one complex in the asymmetric unit. The settings on record: both partners purified.

The target in assay [2] is T2, MED23, endogenous, incorporated within the Mediator complex (human (endogenous in HEK-293), UniProt Q9ULK4).
T2 construct: Mediator subunit MED23, human, endogenous; source: endogenous, HEK-293 lysate
T2 sequence (Q9ULK4 whole entry, one chain of several): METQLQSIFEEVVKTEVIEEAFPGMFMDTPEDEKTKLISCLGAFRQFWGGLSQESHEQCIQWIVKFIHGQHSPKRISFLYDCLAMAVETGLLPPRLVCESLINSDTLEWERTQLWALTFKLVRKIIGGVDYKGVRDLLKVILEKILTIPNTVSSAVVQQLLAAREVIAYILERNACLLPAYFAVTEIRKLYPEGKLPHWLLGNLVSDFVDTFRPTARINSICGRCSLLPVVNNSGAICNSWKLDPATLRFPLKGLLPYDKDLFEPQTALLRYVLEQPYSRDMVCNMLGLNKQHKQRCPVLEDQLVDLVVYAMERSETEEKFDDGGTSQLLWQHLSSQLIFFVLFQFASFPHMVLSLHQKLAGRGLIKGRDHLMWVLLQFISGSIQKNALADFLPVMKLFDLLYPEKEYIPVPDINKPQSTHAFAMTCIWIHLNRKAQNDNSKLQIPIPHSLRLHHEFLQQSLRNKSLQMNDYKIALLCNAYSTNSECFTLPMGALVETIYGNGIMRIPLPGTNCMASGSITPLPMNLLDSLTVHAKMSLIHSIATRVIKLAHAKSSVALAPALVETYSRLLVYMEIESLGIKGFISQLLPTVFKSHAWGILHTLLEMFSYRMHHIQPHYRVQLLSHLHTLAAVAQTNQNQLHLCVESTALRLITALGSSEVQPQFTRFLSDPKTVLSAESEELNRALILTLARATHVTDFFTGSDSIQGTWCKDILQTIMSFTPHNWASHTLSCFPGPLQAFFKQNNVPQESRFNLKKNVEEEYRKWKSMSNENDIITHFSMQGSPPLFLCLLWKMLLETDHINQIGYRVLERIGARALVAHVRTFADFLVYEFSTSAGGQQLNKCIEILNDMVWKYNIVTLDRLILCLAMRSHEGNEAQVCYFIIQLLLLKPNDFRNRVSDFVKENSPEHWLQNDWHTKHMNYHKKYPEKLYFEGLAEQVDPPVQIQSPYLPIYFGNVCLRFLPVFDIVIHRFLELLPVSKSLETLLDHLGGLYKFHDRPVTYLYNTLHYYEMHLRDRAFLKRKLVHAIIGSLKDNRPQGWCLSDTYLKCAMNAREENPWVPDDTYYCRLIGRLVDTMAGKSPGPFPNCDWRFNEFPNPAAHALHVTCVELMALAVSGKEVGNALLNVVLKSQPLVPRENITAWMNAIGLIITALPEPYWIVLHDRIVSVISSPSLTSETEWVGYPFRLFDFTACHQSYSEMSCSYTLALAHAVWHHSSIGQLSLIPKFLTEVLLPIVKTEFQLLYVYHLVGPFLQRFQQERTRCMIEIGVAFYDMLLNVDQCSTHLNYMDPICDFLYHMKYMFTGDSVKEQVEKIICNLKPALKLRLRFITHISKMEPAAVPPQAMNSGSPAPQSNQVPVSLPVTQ
Briefly: co-IP; HEK-293 lysate (50 mM Tris/HCl pH 8, 250 mM NaCl, 0.1% Igepal CA-630) incubated with 2 µg of Nb106 overnight at 4 °C; fished with CaptureSelect C-tag Affinity Matrix; western blot. As to conditions: one partner purified.

T1 sequence (Q9ULK4 whole entry, canonical isoform): as the sequence (Q9ULK4 whole entry, one chain of several) above

B1: nanobody Nb106 (VHH)
VHH: QVQLVESGGGLVQAGASLRLSCAVSGRTGSIYTMGWFRQAPGKEREVVARTTWTPGSTKYADSVKGRVAISRDIAKNTLYLQMNNLKPEDTAVYYCAACAYGTCYYGDRAYEYWGQGTQVTVSS
notes: A related nanobody (PDB 5IMK) was used to fit the density; it is not Nb106; also called lama nanobody; source: E. coli WK6, periplasmic extract, purified (Ni-NTA, Superdex 75)
Take B1: the binding result in assay [1] and in assay [2] was “binds” in each case.

The record behind these values is article PMC6107663, “Crystal structure of human Mediator subunit MED23” (Nature Communications, 2018).
